According to US12630850B2, “Enzymatic break down of chlorogenic acid in sunflower-containing products” (Chapman University, priority 2022, dated 2026):
Where “and” joins values, the source holds several entries; their conditions need not be identical. Equal entries are not always repeated.

Tests used:
Type in all cases: biochemical
[1] = CGA esterase kinetics in sunflower meal
Experimental: Chlorogenic acid esterase kinetics in sunflower meal. To determine the Michaelis-Menten parameters of CGA esterase in undefatted SFM, SFM suspensions were made at following concentrations: 1.0 mg mL^−1, 2.5 mg mL^−1, 10.0 mg mL^−1, 30.0 mg mL^−1, and 100.0 mg mL^−1. All samples were made to a final volume of 10 mL in a solution containing 50 mM HEPES, pH 8.0. Treated samples contained a final enzyme concentration of 10 nM. Reactions were stopped by acidifying the solution by adding 120 μL of 37% HCl at regular intervals for 600 s. Samples were subsequently centrifuged at 10,000 rpm for 10 min. […] The supernatant was then filtered using a 0.2 μm filter and loaded onto an HPLC, as described above. The initial amount of CGA that was present prior to adding enzyme was measured using HPLC.
(§1) HPLC quantification of CGA and CA in sunflower meal and protein isolates. All solutions were diluted ten-fold in 0.1% formic acid in HPLC-grade water before analysis. Quantification of CGA and CA concentration was performed using an Agilent 1260 series HPLC instrument (Agilent Technologies) equipped with a quaternary pump, an automated sample injector, a diode array detector, and a 4.6 mm×150 mm Luna C18(2) column with a 5 μm particle size and 100 Å pore size (Phenomenex). The injection volume was 20 μL. To elute analytes, mobile phases composed of 0.1% formic acid in HPLC-grade water (A) and 0.1% formic acid in HPLC-grade acetonitrile (B) were used in a linear gradient. The gradient is as follows: 0 to 13% B in 1 min, up to 27% B at 8 min, up to 100% B at 8.5 min, isocratic at 100% B to 9.5 min, 100% B returned to 0% B at 9.6 min with 3 min post-time. The concentrations of CGA and CA were calculated from peak integration data based on 10-point standard curve that spanned a concentration range of 0 to 0.1 mg mL^−1.

[2] = CGA esterase activity in the sunflower meal supernatant and pellet (HPLC); conditions: for Pellet mg CA/g meal / Pellet mg CGA/g meal / Supernatant mg CA/g meal / Supernatant mg CGA/g meal: enzyme present
Text: Sunflower meal and sunflower protein treatment with chlorogenic acid esterase. Sunflower seeds were ground using a KitchenAid coffee grinder in two 30 s increments and sieved through a 500 μm filter to make SFM. Two defatting methods were used: cold press and hexane extraction. To make cold pressed SFM, ground seeds were pressed in a Carver Hydraulic Unit Model 3912 3852-0 five times to a pressure of 9,000-10,000 psi. For hexane extracted SFM, fat was removed from ground seeds using a Soxhlet apparatus in 250 mL hexane for 18 h and subsequently dried using a Fischer Scientific Isotemp Oven Model 516G at 45° C. for 3 h. Cold pressed, hexane extracted, and undefatted SFM were then sieved through a 500 μm filter.
Chlorogenic acid esterase activity in the sunflower meal supernatant and pellet. SFM (1 g) that was cold pressed, hexane extracted, or undefatted was buffered in 10 mL of 50 mM HEPES, pH 8.0. CGA esterase was added to a final concentration of 0.756 μM (0.02 mg mL^−1). Untreated samples received a solution of 50 mM HEPES, pH 8.0 instead of CGA esterase. Samples treated with CGA esterase were allowed to sit for 10 min and subsequently centrifuged at 10,000 rpm for 10 min. The supernatant was filtered through a 0.2 μm filter and loaded onto an HPLC while the pellet was lyophilized for 20 h. After lyophilization, 10 mL of 70% ethanol was then added to the dried pellet for 1 h to extract CGA. The pellet was subsequently centrifuged at 10,000 rpm for 10 min. The supernatant was then filtered through a 0.2 μm filter and loaded onto an HPLC.
as §1

[3] = Michaelis-Menten assay of CGA hydrolysis in buffer (absorption spectroscopy); conditions: for kcat: CGA in buffer, room temperature
Experimental: Enzymatic assays to determine Michaelis-Menten parameters. Michaelis-Menten assays were conducted at 21° C. using an Agilent Technologies Cary 60 UV-Vis spectrophotometer. A stock solution of CGA was prepared by dissolving CGA in 50 mM HEPES pH 8.0 followed by calculation of concentration using the Lambert-Beer law with an extinction coefficient of 17,194 M^−1 cm^−1 at 330 nm. Subsequent dilutions of stock CGA were prepared to achieve final CGA concentrations of 0.02 mM, 0.04 mM, 0.06 mM, 0.10 mM, 0.20 mM, and 0.40 mM CGA. The final CGA esterase concentration in all enzymatic assays was 10 nM unless noted otherwise. All samples used for enzymatic assays were buffered in 50 mM HEPES, pH 8.0. Absorption scans were taken at 0.05 or 0.1 min intervals for 2 min between wavelengths of 250 nm and 400 nm. For CGA concentrations below 0.1 mM, the pathlength was 1 cm. Above 0.1 mM CGA, the pathlength was 0.5 cm.
To measure CGA depletion (Δ[CGA]), Equation 1 was used: […]
A is the absorbance at any time point in the reaction, Ao is the initial absorbance, εCA and εCGA are the extinction coefficients at 340 nm of caffeic acid (CA) and CGA, which are 4.15 mM^−1 cm^−1 and 14.43 mM^−1 cm^−1, respectively. To generate initial rates, (Δ[CGA]| was plotted against time. The change in absorbance during the first minute of the reaction was fit to a linear curve, which is used to generate the reaction rate. We note that the rate of CGA depletion is equivalent to CA formation. To test the effect of salt on enzyme kinetics, the same procedure was used, except that the experiment was run with 0.04 mM CGA buffered in 50 mM HEPES pH 8.0 with 500 mM NaCl.
Temperature-dependence measurements. A circulating water bath was used to run enzymatic reactions at different temperatures to maintain the temperature in the spectrophotometer within 1° C. of the target temperature. Buffered solution, CGA, and CGA esterase samples were pre-incubated for 10 min at the desired temperature before starting a measurement. All other instrument parameters were the same as for room temperature measurements described above.

[4] = SFM supernatant, pH 8.0, 20° C.
[5] = CGA in 50 mM HEPES pH 8.0, 20° C.

B1: CGA esterase: CGA esterase from L. helveticus (Genbank ID: WP_025283955.1, Uniprot ID: U6F2K7), expressed in Escherichia coli; the dimer is the active form (protein, listed as Lactobacillus helveticus)
chain: MSRITIERDGLTLVGDREEPFGEIYDMAIIMHGFAANRNTDLLRQIADDLRDENVASVRFDFNGHGESDGKFEDMTVCNEIADGKAILDYVRTDPHVRDIFLVGHSQGGVVASMLAGLYPDVVKKVVLLAPAAQLKDDALRSNTQGATYDPNHIPDWPLVGNKLGMKLGGFYLRTAQVLPIYEVSQCFTRPVSVIAGTNDQWDPKYAKKYDEVYENSELHMIPNADHRFSGGYKDMAADLTAQFLKPAF
For B1, which “Km in SFM lower than in buffered solution” value [1] is on record?
Its value is 4.5 fold.

And the “Meal concentration at which maximal CGA hydrolysis activity is achieved” value [1]?
The value was “approximately 100 mg mL^−1”.

And the “Vmax in SFM lower than in buffered solution” value [1]?
The value was 60 fold.

And the Km [1, 4]?
Its Km is 20 µM.

What about the Vmax [1, 4] of the same molecule?
Its Vmax is 2.716 mM/min/mg.

What about the “Conversion of CGA into caffeic and quinic acid” value ([2]; SFM, in 10 min) of the same molecule?
The value was ~100%.

What about the “Pellet mg CA/g meal” value ([2]; cold pressed SFM) of the same molecule?
Its value is 0.81 ± 0.11 mg CA/g meal.

And the “Pellet mg CGA/g meal” value ([2]; cold pressed SFM)?
The value was 0.02 ± 0.00 mg CGA/g meal.

What about the “Supernatant mg CA/g meal” value ([2]; cold pressed SFM) of the same molecule?
Its value is 3.33 ± 0.15 mg CA/g meal.

And the “Supernatant mg CGA/g meal” value ([2]; cold pressed SFM)?
Its value is 0.00 ± 0.00 mg CGA/g meal.

What about the CGA cleavage ([2]; defatted samples) of the same molecule?
The CGA cleavage was > 99%.

What about the “Pellet mg CA/g meal” value ([2]; hexane extracted SFM) of the same molecule?
Its value is 1.55 ± 0.14 mg CA/g meal.

And the “Pellet mg CGA/g meal” value ([2]; hexane extracted SFM)?
Its value is 0.03 ± 0.00 mg CGA/g meal.

And the “Supernatant mg CA/g meal” value ([2]; hexane extracted SFM)?
Its value is 3.77 ± 0.10 mg CA/g meal.

And the “Supernatant mg CGA/g meal” value ([2]; hexane extracted SFM)?
The value was 0.00 ± 0.00 mg CGA/g meal.

And the “Pellet mg CA/g meal” value ([2]; undefatted SFM)?
Its value is 0.34 ± 0.03 mg CA/g meal.

And the “Pellet mg CGA/g meal” value ([2]; undefatted SFM)?
Its value is 0.11 ± 0.01 mg CGA/g meal.

And the “Supernatant mg CA/g meal” value ([2]; undefatted SFM)?
Its value is 1.52 ± 0.08 mg CA/g meal.

What about the “Supernatant mg CGA/g meal” value ([2]; undefatted SFM) of the same molecule?
The value was 0.00 ± 0.00 mg CGA/g meal.

What about the CGA cleavage ([2]; undefatted samples) of the same molecule?
The CGA cleavage was “ca. 96%”.

And the “Temperature until which the enzyme is active” value [3]?
Its value is “at least 50 °C”.

And the “Change of CGA esterase activity with temperature” value ([3]; 20° C. to 50° C.)?
Its value is “increases only weakly”.

What about the Km ([3]; 40° C.) of the same molecule?
The Km was 96 ± 6 µM.

What about the Vmax ([3]; 40° C.) of the same molecule?
The Vmax was 215.4 ± 31.7 mM/min/mg.

And the Km [3, 5]?
The Km was 90 ± 38 µM.

And the Vmax [3, 5]?
Its Vmax is 170.2 ± 32.3 mM/min/mg.

What about the Vmax ([3]; CGA in 50 mM HEPES pH 8.0, 20° C., listed as L. helveticus) of the same molecule?
Its Vmax is 170.2 mM/min/mg.

And the kcat [3]?
The kcat was 82 s⁻¹ and 82 ± 15.6 s⁻¹.

And the kcat ([3]; listed as L. helveticus CGA esterase)?
The kcat was 82 s⁻¹.

And the kcat ([3]; listed as chlorogenic acid esterase from Lactobacillus helveticus)?
The kcat was 82 s⁻¹.

What about the “Vmax higher than previously reported” value ([3]; vs Song & Baik, 2017) of the same molecule?
The value was 300 fold.
